According to patent publication US20210261677A1 (ORICELL THERAPEUTICS, published 2021):
Read-outs that look alike come from different tables or passages of the source.

Assays:
[1] = biological target: T1, human PD-L1 on cells (CHO cells that stably expressed human PD-L1; MDA-MB-231 cells) (human, UniProt Q9NZQ7 19-290); experiment: flow cytometry competition: biotin-labelled human PD-1-Fc at a subsaturated concentration on CHO cells stably expressing human PD-L1, antibody titrated, streptavidin R-PE detection
T1 construct: whole, on cells; Stably expressed on CHO cells; also called CHO cells expressing human PD-L1
T1 sequence (Q9NZQ7 19-290): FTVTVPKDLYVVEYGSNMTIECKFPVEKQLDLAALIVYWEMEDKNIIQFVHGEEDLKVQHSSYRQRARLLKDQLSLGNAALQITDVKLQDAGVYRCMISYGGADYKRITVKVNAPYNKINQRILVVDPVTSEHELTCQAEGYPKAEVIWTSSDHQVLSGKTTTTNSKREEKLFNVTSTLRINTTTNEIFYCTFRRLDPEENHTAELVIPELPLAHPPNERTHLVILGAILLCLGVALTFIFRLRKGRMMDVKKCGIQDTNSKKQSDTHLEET
Experimental: (§1) After cell washing, Streptavidin R-PE Conjugate (life technology, SA10041) was added and incubated (4° C., 30 min). After cell washing, the fluorescence intensity was detected by a flow cytometer (Intellicyt iQue Screener).

[2] = biological target: T2, mouse PD-L1 on CHO cells that stably expressed mouse PD-L1 (mouse, UniProt Q9EP73 19-290); experiment: flow cytometry competition: biotin-labelled mouse PD-1-Fc at a subsaturated concentration on CHO cells stably expressing mouse PD-L1, antibody titrated, streptavidin R-PE detection
T2 construct: whole, on cells; also called CHO cells expressing mouse PD-L1
T2 sequence (Q9EP73 19-290): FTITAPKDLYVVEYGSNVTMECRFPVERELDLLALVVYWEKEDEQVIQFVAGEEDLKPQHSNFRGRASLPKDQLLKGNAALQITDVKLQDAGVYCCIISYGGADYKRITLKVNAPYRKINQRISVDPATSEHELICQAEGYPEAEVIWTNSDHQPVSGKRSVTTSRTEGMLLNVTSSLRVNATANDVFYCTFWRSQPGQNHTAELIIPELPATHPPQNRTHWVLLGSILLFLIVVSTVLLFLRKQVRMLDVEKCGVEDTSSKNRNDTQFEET
Experimental: as §1

[3] = biological target: T3, recombinant human CD137-His protein (Origincell Therapeutics Co., Ltd.) (human, UniProt Q07011 24-186, limits assumed); experiment: BLI (Octet RED384), antibody on AHC sensor, CD137-His in solution
T3 construct: also called Human 4-1BB-His; not shown: His tag
Experimental: (§2) The antigen-antibody binding kinetics were analyzed by the biofilm interference (BLI) technology, using a molecular interaction analyzer (Octet RED384, purchased from Pall ForteBio Analytics Co., Ltd.) and using a PBS buffer containing 0.1% BSA and 0.02% Tween 20. […] The AHC sensor was regenerated by glycine pulses and then reused. The obtained results would be analyzed by Octet Data Analysis 9.0 software (Pall ForteBio Analytics Co., Ltd.) to give the KD, Kₒₙ (1/Ms) and Koff (1/s).

[4] = biological target: T1, human PD-L1 on cells (CHO cells that …); experiment: flow cytometry on MDA-MB-231 cells (human PD-L1), anti-human IgG-Fc DyLight 650 detection
Experimental: Human breast cell strain MDA-MB-231 (Shanghai Chinese Academy of Sciences Cell Library) highly expresses the human PD-L1 molecule. […] After cell washing, Goat F(ab′)₂ Anti-Human IgG-Fc (DyLight 650) (ab98593, abcam) was added and incubated at 4° C. for 30 min. After cell washing, the fluorescence intensity was detected by a flow cytometer (Intellicyt iQue Screener).

[5] = biological target: T4, recombinant human PD-L1-His protein (Origincell Therapeutics Co., Ltd.) (human, UniProt Q9NZQ7 19-238, limits assumed); experiment: BLI (Octet RED384), antibody on AHC sensor, PD-L1-His in solution
T4 construct: not shown: His tag
T4 sequence (Q9NZQ7 19-238 limits assumed): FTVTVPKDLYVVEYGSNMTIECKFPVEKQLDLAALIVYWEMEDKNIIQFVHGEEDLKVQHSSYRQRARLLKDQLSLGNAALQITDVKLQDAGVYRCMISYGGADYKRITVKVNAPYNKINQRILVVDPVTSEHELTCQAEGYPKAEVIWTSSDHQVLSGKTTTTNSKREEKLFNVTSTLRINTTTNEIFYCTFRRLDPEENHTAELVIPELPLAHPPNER
Experimental: as §2

[6] = biological target: T5, recombinant human PD-L1-Fc protein (Origincell Therapeutics Co., Ltd.) (human, UniProt Q9NZQ7 19-238, limits assumed); experiment: BLI (Octet RED384), biotinylated antigen on SA sensor, antibody in solution
T5 construct: Labeled with biotin (EZ-Link Sulfo-NHS-LC-Biotin) for the BLI assays; unlabeled in the phage ELISA; also called Human PD-L1-Fc-Biotin; not shown: Fc part
T5 sequence (Q9NZQ7 19-238 limits assumed): as above
Experimental: as §2, with “The recombinant human PD-L1-Fc protein and the recombinant mouse PD-L1-Fc were labeled with biotin (EZ-Link Sulfo-NHS-LC-Biotin, Pierce, 21327). The” for “The”, “The” for “The AHC sensor was regenerated by glycine pulses and then reused. The”

[7] = biological target: T6, recombinant mouse PD-L1-Fc protein (M5251, ACROBiosystems Inc.) (mouse, UniProt Q9EP73 19-238); experiment: as above
T6 construct: Bought; Labeled with biotin for the BLI assays; unlabeled in the phage ELISA; also called Mouse PD-L1-Fc-Biotin; not shown: Fc part
T6 sequence (Q9EP73 19-238 limits assumed): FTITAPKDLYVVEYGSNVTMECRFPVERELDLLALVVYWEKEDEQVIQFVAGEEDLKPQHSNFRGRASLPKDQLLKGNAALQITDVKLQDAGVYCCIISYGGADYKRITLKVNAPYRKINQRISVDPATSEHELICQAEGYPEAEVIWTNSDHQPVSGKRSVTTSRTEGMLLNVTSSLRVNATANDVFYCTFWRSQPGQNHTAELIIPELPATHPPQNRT
Experimental: as §2, with “The recombinant human PD-L1-Fc protein and the recombinant mouse PD-L1-Fc were labeled with biotin (EZ-Link Sulfo-NHS-LC-Biotin, Pierce, 21327). The” for “The”, “The” for “The AHC sensor was regenerated by glycine pulses and then reused. The”

[8] = biological target: T2, mouse PD-L1 on CHO cells that stably …; experiment: flow cytometry competition: biotin-labelled mouse PD-1-Fc at a subsaturated concentration on CHO cells stably expressing mouse PD-L1, antibody titrated, streptavidin R-PE detection; remark: listed apart in the source
Experimental: as §1

[9] = biological target: T1, human PD-L1 on cells (CHO cells that …); experiment: flow cytometry on CHO cells stably expressing human PD-L1, anti-human IgG-Fc DyLight 650 detection
Experimental: The mixture was mixed well and incubated at 4° C. for 1 hr. After cell washing, Goat F(ab)₂ Anti-Human IgG-Fc (DyLight 650) (ab98593, Abcam) was added and incubated at 4° C. for 30 min. After cell washing, the fluorescence intensity was detected by a flow cytometer (Intellicyt iQue Screener).

[10] = biological target: T1, human PD-L1 on cells (CHO cells that …); experiment: flow cytometry competition: biotin-labelled human PD-1-Fc at a subsaturated concentration on CHO cells stably expressing human PD-L1, antibody titrated, streptavidin R-PE detection; remark: listed apart in the source
Experimental: as §1

[11] = biological target: T2, mouse PD-L1 on CHO cells that stably …; experiment: flow cytometry on CHO cells stably expressing mouse PD-L1, anti-human IgG-Fc DyLight 650 detection
Experimental: The mixture was mixed well and incubated at 4° C. for 1 hr. After cell washing, Goat F(ab′)₂ Anti-Human IgG-Fc (DyLight 650) (ab98593) was added and incubated at 4° C. for 30 min. After cell washing, the fluorescence intensity was detected by a flow cytometer (Intellicyt iQue Screener).

[12] = biological target: T4, recombinant human PD-L1-His protein …; experiment: BLI (Octet RED384), antibody on AHC sensor, PD-L1-His in solution; remark: listed apart in the source

Binder	IC50 (read off the curve) [1] [nM]	IC50 (read off the curve) [2] [nM]	Kd [3] [nM]	koff [3] [s⁻¹]	kon [3] [M⁻¹ s⁻¹]	EC50 (read off the curve) [4] [nM]	Kd [5] [nM]	koff [5] [s⁻¹]	kon [5] [M⁻¹ s⁻¹]	IC50 (read off the curve) [8] [nM]	EC50 (read off the curve) [9] [nM]	IC50 (read off the curve) [10] [nM]	EC50 (read off the curve) [11] [nM]	Kd [12] [nM]	koff [12] [s⁻¹]	kon [12] [M⁻¹ s⁻¹]	also measured
anti-PD-L1/CD137 bispecific antibody YN-051 (bispecific antibody, human IgG1, lambda, N297A, First polypeptide (built from the YN-035 heavy chain and the YN-006 heavy and light chain genes) and second polypeptide (= YN-035 light chain); SDS-PAGE: about 200 kDa non-reduced, about 75 and 25 kDa reduced) heavy: not shown light: QSALTQPASVSGSPGQSITISCTGTVSEVGGYNEVSWYQQHPGKAPKLMIYGNSNRPSGVSNRFSGSKSGNTASLTISGLQAEDEADYYCQSYDSSLSGTVFGGGTKLTVLGQPKAAPSVTLFPPSSEELQANKATLVCLISDFYPGAVTVAWKADSSPVKAGVETTTPSKQSNNKYAASSYLSLTPEQWKSHRSYSCQVTHEGSTVEKTVAPTECS	~2	~5	1.64	0.000147	89900	~1	0.517	0.000275	532000	–	–	–	–	–	–	–	–
anti-PD-L1/CD137 bispecific antibody YN-052 (bispecific antibody, human IgG1, lambda, N297A, First polypeptide (built from the YN-036 heavy chain and the YN-006 heavy and light chain genes) and second polypeptide (= YN-036 light chain); SDS-PAGE: about 200 kDa non-reduced, about 75 and 25 kDa reduced) heavy: not shown light: QSALTQPASVSGSPGQSITISCTGTVSEVGGYNEVSWYQQHPGKAPKLMIYGNSNRPSGVSNRFSGSKSGNTASLTISGLQAEDEADYYCQSYDSSLSGTVFGGGTKLTVLGQPKAAPSVTLFPPSSEELQANKATLVCLISDFYPGAVTVAWKADSSPVKAGVETTTPSKQSNNKYAASSYLSLTPEQWKSHRSYSCQVTHEGSTVEKTVAPTECS	~3	~5	2.08	0.000174	83700	~2	0.572	0.000257	448000	–	–	–	–	–	–	–	–
anti-PD-L1/CD137 bispecific antibody YN-007 (bispecific antibody, First polypeptide (built from the YN-003 heavy chain and the YN-006 heavy and light chain genes) and second polypeptide (= YN-003 light chain); SDS-PAGE: about 200 kDa non-reduced, about 75 and 25 kDa reduced) heavy: not shown light: QSALTQPASVSGSPGQSITISCTGTSSDVGGYNYVSWYQQHPGKAPKLMIYGNSNRPSGVSNRFSGSKSGNTASLTISGLQAEDEADYYCQSYDSSLSGSVFGGGTKLTVLGQPKAAPSVTLFPPSSEELQANKATLVCLISDFYPGAVTVAWKADSSPVKAGVETTTPSKQSNNKYAASSYLSLTPEQWKSHRSYSCQVTHEGSTVEKTVAPTECS	–	–	–	–	–	–	–	–	–	–	–	–	–	–	–	–	Kd [6]: 0.525 nM; koff [6]: 0.000592 s⁻¹; kon [6]: 1.13e+06 M⁻¹ s⁻¹; Kd [7]: 1.34 nM; koff [7]: 0.00109 s⁻¹; kon [7]: 810000 M⁻¹ s⁻¹
PD-L1 antibody YN-039 (antibody, human IgG1, lambda, V domains shown, full-length IgG1,lambda) VH: QVQLVQSGAEVKKPGSSVKVSCKASRGPFSTYAISWVRQAPGQGLEWMGRIIPILGIANYAQKFQGRVTITADKSTSTAYMELSSLRSEDTAVYYCARTMGEYSYGNYDYWGQGTLVTVSS VL: QSALTQPASVSGSPGQSITISCTGTVSDVGGYNEVSWYQQHPGKAPKLMIYENSIRPSGVSHRFSGSKSGNTASLTISGLQAEDEADYYCQSYDSSLSGTVFGGGTKLTVLG	–	–	–	–	–	–	–	–	–	~4	3 to 4	~3	~6	0.485	0.000173	356000	–
PD-L1 antibody YN-037 (antibody, human IgG1, lambda, V domains shown, full-length IgG1,lambda) VH: QVQLVQSGAEVKKPGSSVKVSCKASRGPFSTYAISWVRQAPGQGLEWMGRIIPILGIANYAQKFQGRVTITADKSTSTAYMELSSLRSEDTAVYYCARTMGEYSYGNYDYWGQGTLVTVSS VL: QSALTQPASVSGSPGQSITISCTGTSSSVGGYREVSWYQQHPGKAPKLMIYENSIRPSGVSHRFSGSKSGNTASLTISGLQAEDEADYYCQSYDSSLSGTVFGGGTKLTVLG	–	–	–	–	–	–	–	–	–	~4	3 to 4	~3	~6	0.382	0.000136	355000	–
PD-L1 antibody YN-038 (antibody, human IgG1, lambda, V domains shown, full-length IgG1,lambda) VH: QVQLVQSGAEVKKPGSSVKVSCKASRGPFSTYAISWVRQAPGQGLEWMGRIIPILGIANYAQKFQGRVTITADKSTSTAYMELSSLRSEDTAVYYCARTMGEYSYGNYDYWGQGTLVTVSS VL: QSALTQPASVSGSPGQSITISCTGTRSDVGGYNEVSWYQQHPGKAPKLMIYENSIRPSGVSHRFSGSKSGNTASLTISGLQAEDEADYYCQSYDSSLSGTVFGGGTKLTVLG	–	–	–	–	–	–	–	–	–	~4	3 to 4	~3	~6	0.447	0.000156	350000	–
